This note sets out measurements from article PMC5404824, “Engineering Nucleotide Specificity of Succinyl-CoA Synthetase in Blastocystis: The Emerging Role of Gatekeeper Residues” (Biochemistry, 2016).

Broadly, the Km is the concentration of substrate that gives half-maximal velocity. The kcat is the maximal rate divided by the concentration of active sites. As a reminder, the kcat/Km is the turnover number divided by the Michaelis constant.

Substrate in the data set: Nc1ncnc2c1ncn2[C@@H]1O[C@H](COP(=O)(O)OP(=O)(O)OP(=O)(O)O)[C@@H](O)[C@H]1O
Nature of the data set: purified protein. The settings on record: 129 μM CoA, 10 mM succinate, 50 mM KCl, 10 mM MgCl2, 50 mM Tris-HCl pH 7.4, 30 nM enzyme.

B1: Blastocystis SCS (succinyl-CoA synthetase, SCSα + SCSβ) (Blastocystis sp. ATCC 50177/Nand II) (protein)
chain: LNIHEWQSKQLIQKYGGRAQSGEVAFSPERSRDIAKKLWNQFPGCKFVVKAQVLAGGRGKGHWEHGMQGGVKLAKTPEEVYEIANEMIGHKLITKQTGAKGINCNKVMVCGAVKILKEFYLSILLDRAMGCPVIIATSQGGMGIEEVAQKCPECLFKVPISVKNGPTNEQLVKLAKDLGLEGDLVQDCVDNVKALYQVFDKCDSTMVEINPLGVIETPTDEKVICCLDAKIAFDKDAAFRQKEIFALRDKSREDPRDVRASLADLNYVGLDGDIGCMVNGAGLAMATMDTINYFGGSAANFLDVGGNAKKEQITEALRILNSDKHVKSILINIFGGIMRCDVVAQGIMDAVREMKLDLPLVVRLEGTNVAKGKEILKSSGLNIIPANDLGDAAKKAVASLKH
For B1, the Km was 145 ± 47 µM, the kcat amounted to 0.0139 s⁻¹ and the kcat/Km is 96 M⁻¹ s⁻¹.
